These results are taken from a protein production outcome set (Wang et al. 2014).
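Further: failed if final PepcDB status was selected cloned or expressed and not failed if soluble or beyond.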

The series in a line: label from the status in PepcDB records.
Take “MGGGGGSRGPGHAARIAAPPFRPPSPCPAMLAAGEMCGAAHCPARPAPVSCRDRPRRFSSPSPLPGSLFFSPVAAGRRVSRPIFLFCSFGGFCMQRFLTLALLGAAALGGALAQNAAPAPAPAPVAQPAPAPQTAPATPAAQPAAPAVRPPAANYVVVGNLYYDQGKFDQAYVAFRTAAELDPRNTQALLGLGRSQVRLRLYAPAVDTLRRLTTVDPQNVSGYVALSQAYQQQYMGSGDRASVTGNLDAALAVLQQAEAAVTALPEADRALAQSKLLNERGSVYRLQGKPTQAIEAFRQASALNPENSLLLFNLGDMYAASGQLPLAVSALQQAVILDPRDPYNRAYYAKLLALSGNLTSARVEAAQASRLVTGNAYATGQYGVVSYLAGDRTTARTQLAQAVRLDPLRYPEFYYYLGRLDLDGSDLKSARDNLTRAVALNSTSAEYAYYLGLAYERGVPGVAADNVRARENYDKALKLAPGYKQAQEGADRLKPPSSGN”: the protein production result is recorded as “failed”.

With “MRIGVIMGGVSSEKQVSIMTGNEMIANLDKNKYEIVPITLNEKMDLIEKAKDIDFALLALHGKYGEDGTVQGTLESLGIPYSGSNMLSSGICMDKNISKKILRYEGIETPDWIELTKMEDLNFDELDKLGFPLVVKPNSGGSSVGVKIVYDKDELISMLETVFEWDSEVVIEKYIKGEEITCSIFDGKQLPIISIRHAAEFFDYNAKYDDASTIEEVIELPAELKERVNKASLACYKALKCSVYARVDMMVKDGIPYVMEVNTLPGMTQASLLPKSADAAGIHYSKLLDMIIETSLRVRKEEGF”, the protein production entry was “not failed”. Take “MEQRIWDLFGISADGNISRGNSGCVHTRNNKKEGDVLKVLTYVMLASVILFTTTYLILYLTYAKPVEIDVPFYGAPRGYTTITYEEVILPLTGKYKIENCYVQDSRSIYSNEGYLSERGVRIIVGNYTEDVYVRLIPQKMIPSEIIFLLMVGGVLGYVGDRMFKFK”: the protein production entry is reported as “failed”. The same measure for “MDFPCLWLGLLLPLVAALDFNYHRQEGMEAFLKTVAQNYSSVTHLHSIGKSVKGRNLWVLVVGRFPKEHRIGIPEFKYVANMHGDETVGRELLLHLIDYLVTSDGKDPEITNLINSTRIHIMPSMNPDGFEAVKKPDCYYSIGRENYNQYDLNRNFPDAFEYNNVSRQPETVAVMKWLKTETFVLSANLHGGALVASYPFDNGVQATGALYSRSLTPDDDVFQYLAHTYASRNPNMKKGDECKNKMNFPNGVTNGYSWYPLQGGMQDYNYIWAQCFEITLELSCCKYPREEKLPSFWNNNKASLIEYIKQVHLGVKGQVFDQNGNPLPNVIVEVQDRKHICPYRTNKYGEYYLLLLPGSYIINVTVPGHDPHITKVIIPEKSQNFSALKKDILLPFQGQLDSIPVSNPSCPMIPLYRNLPDHSAATKPSLFLFLVSLLHIFFK”: “not failed”; for “MQNCATGMQMDWISLLKAQQADFLLRVKKPKTYDLSLLESQVKGCHSEIMAFWGEPFAKIQEVSRRQAEILAKNPPPIPPEYPEPPDWTIPFPIHFQQQAEDYFLREQIVDRLIVERLGKLLKKLPQDTVKNMVLDDEGNLRGESKFTYLLADNPKISVQVYVADGESFNGIKKDKIKWSVTQEDLKNHQVLIFLCLFYPSTGKLGYEKQAVVAGFLPTSHIAVTEPKLYFTPSHLLYAGGLSWYLESLTAKKEAKLDFLPVVIERTIPETIQTVPSEHPRKEIIGDWECWQTLRGHMRGINCLSFSSGCENGLPMLASGSRGETKLWDLNQGELIDTLSEYPWIVSGLVDEVNSLAFSADGQMLVSGGADSTIKIWHTGALDLIDILHKHNGIVRCAAFTPDGQMLATGGDDRRILFWDLMHRQVKAILSLDDTAAHSLVLSRDGQTLVTGSYRKIKVWQTSGSWFGKNLKDAQPLHTLMGHGHIVRSLAMSKDGQLLISGSWDQTIKIWHLATGRLIRTLKGHTDKVYAIALSPDEQIIASGSSDQTIKLWHLETGELLATFTGHTDIVTALTFTTSGEMLVSGSLDKTIKLWQRS”: “failed”. The same measure for “MLLEQQKQLISLIQAAVAQCLPEAQAQVQLERPKVAAHGDIATNVAMQLAKPARRNPRELAQGIVDALMAQPQARELIQDAEIAGPGFINFRLTPAARQAVVQAVASQADA”: “failed”. In the case of “LDRAYLRVENQRYRDKLEAANRELQASLNLLQEDQNAGRQVQMNMLPVTPWSIEGLEFSHRIIPSLYLSGDFVDYFRVDERRVAFYLADVSGHGASSAFVTVLLKFMTTRLLYESRRNGTLPEFKPSEVLAHINRGLINTKLGKHVTMLGGVIDLEKNSLTYSIGGHLPLPVLFVEGQAGYLEGRGLPVGLFDDATYDDRVMELPPSFSLSLFSDGILDVLPGATLKEKEASLPEQVAAAGGTLDGLRQVFGLANLAEMPDDIALLVLSRNLA” it was “failed”.

Turning to “MAGASVAATTLKGDTSLLAGGAIRGAINAFGKDKKLKTQLASSGKLYGKYAKAASKIENLVLGGENISLVVDPP”, the protein production entry is on record as “failed”.
